Biological target: the molecule itself
Assay: SEC + other: densitometry of SDS-PAGE bands; ~600 kDa gel filtration fraction of the DptC/D/E complex resolved on Coomassie-stained SDS-PAGE, bands quantified by ImageJ and normalised by molecular mass; copy number worked out from the ~600 kDa mass and the equimolar amounts

| Protein | stoichiometry N |
| --- | --- |
| DptD (S. enterica serovar Cerro 87) (enzyme, DptD (77 kDa), phosphorothioate-modifying protein of Salmonella enterica serovar Cerro 87; expressed from the coding region of the dptC/D/E operon; also called PT-modifying protein D; source: E. coli BL21 (DE3), co-overexpressed with His-DptC and DptE from pET-28a(+); in lysate, then co-purified with His-DptC (nickel column, gel filtration)) MRANRLCLSMRKMNVLIKQLVLHNFRVFCGTHTIDLAPRKRPHEVNPRPIVLFGGLNGAGKTSILSAIRLALYGRLAFGPAMQQQEYVEQLGALVHNGTYTAERPDEAAVELTFTYNQNGHETEFTVTRSWKKGKKDRLSLQQDGQPRSELSYDQCQGFLNELIPHGVADLFFFDGEKIAELAEDESGNILRTAVRRLLGLDLIARLQNDLMIFIKRQQTAQLGGSQQQQVEALEAKIKTLAGQAEKLLEEADFVNSRIEFLSQDIIRHEGLLNAQGGAFAQTKAQEKQKVETLLKEKERLEKALRQECDGSLPYALAPNTLSRLLEKIANEAQIKQAKIFETELNQFLTQLKNDIAFRSSSESSTRAIATEAITNNLDAYMATKPKGDLLFDISEREAGMLQQSIEQDSKKAWQRFDMYRHQLADIEQQLEQAAANIARAPEDEQLMDLFAALRDLDHKREKQRQKYRSLLEEAKRTKQQQLDCVRQVQKAHDITRSQHGLSSAFKNAQETINLLDYYSNVLTQARVKKLSANFEIAYHKLARKEDLQLNAHINPQTFDVELVDEKGSVINRKLLSAGEKQIYAIAILEALAKTSGRDFPVIIDTPLGRLDSQHRDKLINHYFPEASHQVVLLSTDTEVDERYFVDRLRDDISHAYEIVFNAHTKSSALKPGYFWELTKEAV | 4 |
| DptC with N-terminal His-tag (S. enterica serovar Cerro 87) (enzyme, DptC, phosphorothioate-modifying protein of Salmonella enterica serovar Cerro 87; coding region of the dptC/D/E operon amplified from genomic DNA; the upstream primer begins at the ATG of dptC; also called His-Tag labeled DptC; labelled DptC; source: E. coli BL21 (DE3), co-overexpressed with DptD and DptE from pET-28a(+); in lysate, then purified (nickel HiTrap chelating column, Superdex gel …)) MSKLVQAYDLAEYEDFINQEQFAGRPLAEYVAEVQRIYCADKRPWVIGYSGGKDSSAVITLVYLALLGLPPEMRSKDVFIVSSDTLVETPVVVDLIKKTMLQIEAGAKRNGLPITQHAVTPKTNETFWVNLLGKGYPAPTRSFRWCTERMKINPVSDFIKDKVSQFDEVIVVLGSRSSESASRAQVIAKHKIDGSRLARHTTLANAFIYTPIDTWDVEDVWKLLRGAFRYAPEDIDEWESPWGGNNRPLWTLYMDSSAQGECPLVIDESTPSCGNSRFGCWTCTVVTKDKAMESLIKNGEEWMSPLLKYRDLLAFTTDPANKDTYRNYKRRTGKVSYQYAKDGEDRSAERKHVPGPYWLKYRQQWLKDLLEIERDLNAQGHTITLITQPELHAIRQEWLKDPNEPDWHDTLPEIYREVYQQDLNWVVDDQSRFDASDADLLAQITQGFDVVPEMVMKLIELETSMEGLSRRQGIFDKLGTILKQDWGSLEEIQQQQATLQKRNDRDIHQDEVEKLEAELQTLQRRIIDAGESSVLIDEENERAH | 4 |
| DptE (S. enterica serovar Cerro 87) (natural protein, DptE (13 kDa), phosphorothioate-modifying protein of Salmonella enterica serovar Cerro 87; expressed from the coding region of the dptC/D/E operon; also called PT-modifying protein E; source: E. coli BL21 (DE3), co-overexpressed with His-DptC and DptD from pET-28a(+); in lysate, then co-purified with His-DptC (nickel column, gel filtration)) MLPNRMVLSRQTEDQLKKLKGYTGITPNVAARLAFFRSVESEFRYSPERDSKKLDGSLVLDKITWLGETLQATELVLKMLYPQLEQKILIKAWAAHVDDGIAALRNYRSLKDFSKNI | 4 |

Source: publication PMC4515589, “In vitro analysis of phosphorothioate modification of DNA reveals substrate recognition by a multiprotein complex” (Scientific Reports, 2015)
